# Laboratory results as given in patent publication US20230365658A1 (LAWRENCE LIVERMORE NATIONAL SECURITY, published 2023).
# Where a chain is given by its changes, count along the chain named.
# B1: mAb_RBD_2130_FAB_20211231_00199 (antibody, V domains shown)
# VH: EVQLVESGGGLVKPGGSLRLSCAASGFTFRDVWMSWVRQAPGKGLEWVGRIKSKIDGGTTDYAAPVKGRFTISRDDSKNTLYLQMNSLKTEDTAVYYCTTAGSYYYDTVGPGLPEGKFDYWGQGTLVTVSS
# VL: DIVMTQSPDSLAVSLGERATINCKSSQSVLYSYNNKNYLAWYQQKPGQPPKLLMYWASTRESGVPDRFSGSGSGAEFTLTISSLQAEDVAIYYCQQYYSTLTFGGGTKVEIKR
# B2: mAb_v2130JustStableLines_20220111_00002 (antibody, V domains shown)
# VH: B1 VH with I55D
# VL: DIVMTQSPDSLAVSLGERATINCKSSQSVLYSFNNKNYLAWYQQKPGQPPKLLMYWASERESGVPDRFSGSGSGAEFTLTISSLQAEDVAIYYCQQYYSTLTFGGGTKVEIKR
# notes: also called LLNL010
# B3: v2130_upsample_20220121_00354 (antibody, V domains shown)
# VH: B1 VH with V109R, G112E
# VL: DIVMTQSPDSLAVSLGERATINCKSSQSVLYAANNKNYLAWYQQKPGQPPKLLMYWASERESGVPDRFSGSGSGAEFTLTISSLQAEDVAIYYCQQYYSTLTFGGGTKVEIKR
# B4: mAb_v2130Vanderbilt_184_20220114_00112 (antibody, V domains shown)
# VH: B1 VH with G112E
# VL: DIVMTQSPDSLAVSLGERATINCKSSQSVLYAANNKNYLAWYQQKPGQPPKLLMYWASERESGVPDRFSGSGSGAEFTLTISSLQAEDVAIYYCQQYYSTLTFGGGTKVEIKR
# B5: v2130_upsample_20220121_00298 (antibody, V domains shown)
# VH: B1 VH with I55E, Y106H
# VL: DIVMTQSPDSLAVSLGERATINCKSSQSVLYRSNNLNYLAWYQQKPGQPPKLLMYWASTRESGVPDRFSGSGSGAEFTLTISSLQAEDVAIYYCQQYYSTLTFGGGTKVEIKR
# B6: mAb_v2130Vanderbilt_184_20220114_00111 (antibody, V domains shown)
# VH: B1 VH with G112E
# VL: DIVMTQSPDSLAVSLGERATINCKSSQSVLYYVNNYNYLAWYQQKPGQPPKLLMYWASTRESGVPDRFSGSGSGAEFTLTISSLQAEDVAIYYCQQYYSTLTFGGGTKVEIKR
# notes: also called LLNL198
# B7: v2130_upsample_20220121_00009 (antibody, V domains shown)
# VH: B1 VH with Y106D, F118I
# VL: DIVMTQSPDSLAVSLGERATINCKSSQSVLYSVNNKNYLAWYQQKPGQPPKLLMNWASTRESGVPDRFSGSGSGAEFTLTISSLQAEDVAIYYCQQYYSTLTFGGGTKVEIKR
# Tests used:
# [1] = biological target: T1, SARS-CoV-2 spike (S) glycoprotein, Omicron BA.1 (SARS-CoV-2, UniProt P0DTC2 14-1273); assay: cell-based or functional assay
# [2] = biological target: T2, SARS-CoV-2 spike (S) glycoprotein, Omicron BA.2 (SARS-CoV-2, UniProt P0DTC2 14-1273); assay: cell-based or functional assay
# [3] = biological target: T3, SARS-CoV-2 spike (S) glycoprotein, Omicron BA.1.1 (SARS-CoV-2, UniProt P0DTC2 14-1273); assay: cell-based or functional assay
# [4] = biological target: T1, SARS-CoV-2 spike (S) glycoprotein, …; assay: cell-based or functional assay; remark: listed apart in the source
# [5] = biological target: T4, SARS-CoV-2 spike (S) glycoprotein, Omicron BA.4 (SARS-CoV-2, UniProt P0DTC2 14-1273); assay: cell-based or functional assay
# [6] = biological target: T5, SARS-CoV-2 spike (S) glycoprotein, D614G (SARS-CoV-2, UniProt P0DTC2 14-1273); assay: cell-based or functional assay
# [7] = biological target: T2, SARS-CoV-2 spike (S) glycoprotein, …; assay: cell-based or functional assay; remark: listed apart in the source
# [8] = biological target: T6, SARS-CoV-2 Spike-RBD, Delta (SARS-CoV-2, UniProt P0DTC2 319-541); assay: Gyros full-curve immunoassay, mAb titrated on RBD, relative binding (FI)
# T6 construct: domain: RBD; also called Delta RBD
# [9] = biological target: T6, SARS-CoV-2 Spike-RBD, Delta; assay: Gyrolab immunoassay, IgG titrated on Spike-RBD, relative binding (FI)
# [10] = biological target: T3, SARS-CoV-2 spike (S) glycoprotein, …; assay: cell-based or functional assay; remark: listed apart in the source
# [11] = biological target: T1, SARS-CoV-2 spike (S) glycoprotein, …; assay: cell-based or functional assay; remark: listed apart in the source
# [12] = biological target: T4, SARS-CoV-2 spike (S) glycoprotein, …; assay: cell-based or functional assay; remark: listed apart in the source
# [13] = biological target: SARS-CoV-2 spike (S) glycoprotein, Omicron BA.5.5 (SARS-CoV-2, UniProt P0DTC2 14-1273); assay: cell-based or functional assay
# [14] = biological target: SARS-CoV-2 spike (S) glycoprotein, Delta (B.1.617.2) (SARS-CoV-2, UniProt P0DTC2 14-1273); assay: cell-based or functional assay
# [15] = biological target: T3, SARS-CoV-2 spike (S) glycoprotein, …; assay: cell-based or functional assay; remark: listed apart in the source
# [16] = biological target: SARS-CoV-2 spike (S) glycoprotein, Omicron BA.2.12.1 (SARS-CoV-2, UniProt P0DTC2 14-1273); assay: cell-based or functional assay
# [17] = biological target: T3, SARS-CoV-2 spike (S) glycoprotein, …; assay: cell-based or functional assay; remark: listed apart in the source
# [18] = biological target: T1, SARS-CoV-2 spike (S) glycoprotein, …; assay: cell-based or functional assay; remark: listed apart in the source
# [19] = biological target: T4, SARS-CoV-2 spike (S) glycoprotein, …; assay: cell-based or functional assay; remark: listed apart in the source
# [20] = biological target: T5, SARS-CoV-2 spike (S) glycoprotein, D614G; assay: cell-based or functional assay; remark: listed apart in the source
# [21] = biological target: SARS-CoV-2 spike (S) glycoprotein, Omicron BA.5 (SARS-CoV-2, UniProt P0DTC2 14-1273); assay: cell-based or functional assay
# [22] = biological target: SARS-CoV-2 spike (S) glycoprotein, Omicron BA.2.75 (SARS-CoV-2, UniProt P0DTC2 14-1273); assay: cell-based or functional assay
# [23] = biological target: T2, SARS-CoV-2 spike (S) glycoprotein, …; assay: cell-based or functional assay; remark: listed apart in the source
Binder,pseudovirus neutralization IC50 [1] [ng/mL],pseudovirus neutralization IC50 [2] [ng/mL],normalized pseudoneutralization IC50 [3] [ng/mL],normalized pseudoneutralization IC50 [4] [ng/mL],normalized pseudoneutralization IC50 [5] [ng/mL],normalized pseudoneutralization IC50 [6] [ng/mL],normalized pseudoneutralization IC50 [7] [ng/mL],EC50 (read off the curve) [8] [ng/mL],pseudovirus neutralization IC50 [15] [ng/mL],also measured
B1,556,1.11,,,,,,,,
B2,339,1.15,> 10000,34.8,4.69,4.92,1.47,~2000,,EC50 (read off the curve) [9]: ~2000 ng/mL
B3,0.178,0.515,,,,,,~400,0.475,authentic virus neutralization IC50 (FRNT) [10]: 9.65 ng/mL; authentic virus neutralization IC50 (FRNT) [11]: 4.23 ng/mL; authentic virus neutralization IC50 (FRNT) [12]: 3.04 ng/mL; authentic virus neutralization IC50 (FRNT) [13]: 2.82 ng/mL; authentic virus neutralization IC50 (FRNT) [14]: 6.23 ng/mL
B4,1.14,0.852,6.25,2.56,0.779,4.08,0.985,,3.21,"authentic virus neutralization IC50 (FRNT, Vero-TMPRSS2) [16]: < 10 ng/mL; authentic virus neutralization IC50 (FRNT, Vero-TMPRSS2) [17]: < 10 ng/mL; authentic virus neutralization IC50 (FRNT, Vero-TMPRSS2) [18]: < 10 ng/mL; authentic virus neutralization IC50 (FRNT, Vero-TMPRSS2) [19]: < 10 ng/mL; authentic virus neutralization IC50 (FRNT, Vero-TMPRSS2) [20]: < 10 ng/mL; authentic virus neutralization IC50 (FRNT, Vero-TMPRSS2) [21]: < 10 ng/mL; fold improvement of pseudoviral neutralization over COV2-2130 [22]: 90 fold; pseudoviral neutralization IC50 [22]: 1.9 ng/mL; authentic virus neutralization IC50 (FRNT, Vero-TMPRSS2) [23]: < 10 ng/mL; authentic virus neutralization IC50 (FRNT) [10]: 39.2 ng/mL; authentic virus neutralization IC50 (FRNT) [11]: 5.53 ng/mL; authentic virus neutralization IC50 (FRNT) [12]: 7.47 ng/mL; authentic virus neutralization IC50 (FRNT) [13]: 5.29 ng/mL; authentic virus neutralization IC50 (FRNT) [14]: 33.9 ng/mL"
B5,626,566,,,,,,,,
B6,118,0.0392,4030,32,34.3,3.02,0.162,~1000,603,EC50 (read off the curve) [9]: ~1000 ng/mL
B7,,,,,,,,,,binding result [8]: no binding (tested: about 150 ug/ml)
